{
  "source": "the DeepSol protein solubility set",
  "data": [
    {"test": "soluble on expression in E. coli; label from the status in PepcDB or PDB records", "values": [
      {"sequence": "MREAMFYEKLDDNKVRCHICPRHCIIKEGERGFCWNRENINGVLYAVGYGKVCSLAIDPIEKKPLFHFYPTTQVVSLAIGGCNFRCLHCQNWTISQFPPDEIPYREMTPEEIVEVAIRYNCPGISYTYTEPTVYYEFMYDTSVIARENGMFNVMITNGYIEKEPLKALPVDAMNIDIKGNADFYKKVCKATLEPVLETCKLAKKLGIWVEVTNLIVPNYNDNIDDLLFIIHFVRDELGRETPLHFSRFHPDYKLTDVPPTPIETLEMARNLAIEEGLKYVYIGNVPGHEGENTYCPNCGALLIERYIFNAKIINLDVETKRCKICGEKIDIVL", "soluble on expression in E. coli": "not soluble"},
      {"sequence": "MTKINVPLETSNKTTSDLEKKKPFSVLLMGSDARPGETNGRADTIILATANKQQNAVEMVSIPRDTKVDYGNGDIGKINASYSNGGPSGTVSAVEKLMPGVPVDYFISINMEGFKDLVDAVGGITVYNDIDLTEVNSKFVKGNITLNGTDALQYVRIRHEDPRGDFGRQDRQRDVIIGIANKVISSSGVSNFESIMKAVGDNFQTNMTLTDITSMATNYSSVLKNVDSQELKGEGEMIYSESYGFDLYYFAPDETDLERVINMFKKSLDITELEHHHHHH", "soluble on expression in E. coli": "soluble"},
      {"sequence": "MSLGHAKEVKIGVILGFTGPIESLTPSMADGAELAMKEVTDSGLLLDGATVTSVRADSTCVDAAAATAAAERLVTSDKVDGIMGADCSGVTGAILSNVAVPNGVVMISPSATSPALSTADDNGLFFRTAPSDARQGVVMTEVLMEEGIKEVALTYTNNDYGKGLADSFQAAFEAAGGTVTISAAHEDGKADYSAEVGALAAAGGDRLVVAGYVDQGGSGIVRSAIDSGAFDTFHFPDGMIGAKLEENFGDEIEGSSGQHPGTDSPGVAKFSEMVGGAFDSTSPFTPEAYDAAALIMLAMQAANSKDSGDYKDHVMHVANAPGEKIYPGELAKALQIIKDGGEVDYVGATAVELIGPGESAGNYRQITIEGGKITTAKFREGHHHHHH", "soluble on expression in E. coli": "soluble"},
      {"sequence": "MGSDKIHHHHHHLAIFIQYIDTLKLVSIGKNDMYSIEQLEAFVATVKTGSFSSAARALNKAQSVISQHVINLEIDCNSELFDRSGRYPQLTPAGKKLLPHAQVLLSQHQRLRDCAQSLDQQAISELTIGLDEGIPLQKLFNIINELEAKFPTITLEFLTASSIDIIDMIDTERAVTGIIFSELTIPAHIDFESIGSIKFDMYVASTHLLAQQIYDNLAHLKLHRQLLIRSRNTKSSSFQFAISPDVWYADNYYILLELALQGHGWCLLPNHIANHYVDSGQLVMLPSEFKEIGWQANVDVIQHHRYSHEPVFKQLRHSLRQLLTYSA", "soluble on expression in E. coli": "not soluble"},
      {"sequence": "MKTLNRRDFPGAQYPERIIQFGEGNFLRAFVDWQIDLLNEHTDLNSGVVVVRPIETSFPPSLSTQDGLYTTIIRGLNEKGEAVSDARLIRSVNREISVYSEYDEFLKLAHNPEMRFVFSNTTEAGISYHAGDKFDDAPAVSYPAKLTRLLFERFSHFNGALDKGWIIIPCELIDYNGDALRELVLRYAQEWALPEAFIQWLDQANSFCSTLVDRIVTGYPRDEVAKLEEELGYHDGFLDTAEHFYLFVIQGPKSLATELRLDKYPLNVLIVDDIKPYKERKVAILNGAHTALVPVAFQAGLDTVGEAMNDAEICAFVEKAIYEEIIPVLDLPRDELESFASAVTGRFRNPYIKHQLLSIALNGMTKFRTRILPQLLAGQKANGTLPARLTFALAALIAFYRGERNGETYPVQDDAHWLERYQQLWSQHRDRVIGTQELVAIVLAEKDHWEQDLTQVPGLVEQVANDLDAILEKGMREAVRPLC", "soluble on expression in E. coli": "not soluble"},
      {"sequence": "MGSDKIHHHHHHMTQPFIPEQEYKRTDLHKQYGGNAQSGISNCANYPYIFIFSGVTGKQHGYKDGWENPNVFEYTGEGQMGDMSFTRGNLALRDHIDNGKQVFLFQYQRSGIVKYICELEFYDTDYFPTHDSSKQLRVGIRFFLKRKGAILPSVKELNQSTDFLAAESIPFYGIDSIKETSRKGEVNLRVGQGAYRKSIIHHWQYKCAVTGFDKLNLLNASHIHPWKDATDKERLDVNNGILLSPTYDALFDKHLISFENDGKIILSDTIHFSAYQKIGVTGKEKIKELNSNSILYIEKHRHLLLKY", "soluble on expression in E. coli": "not soluble"},
      {"sequence": "MAGDPMGTLKLIQYPSQLLSLTISDIINKQNLSQLIQKSKKDDSENWEGKDWIIKNTPQQGINWIGEHPNIKAVIIKTKDGSYADDGWKNNEKTIYSYSFKAAKGIINFNDSANRVLINQPISNYPILLFTDSSNKWEFQGCFKIIDILEKAVILEKMISFPSLNDKNSDNDDVILYKNEHTEGKIKYITHMLSERNRKIIDEIKDNSQWVCDICEIKFLDKYGKNYIEAHHKIPIHTFTGEHRILKTDFALLCPNCHKAVHIYLREENLQYEEAKIKIRNILKRLEHHHHHH", "soluble on expression in E. coli": "not soluble"},
      {"sequence": "MTIGQKNTNIDPRFPHHHPRPQSFWEARAKALESLLIEKGHLSSDAIERVIKHYEHELGPMNGAKVVAKAWTDPAFKQRLLEDSETVLRELGYYGLQGEHIRVVENTDTVHNVVVCTLCSCYPWPLLGLPPSWYKEPAYRARVVKEPRQVLKEFGLDLPDSVEIRVWDSSSEIRFMVLPQRPEGTEGMTEEELAKLVTRDSMIGVAKIEPPKVTVG", "soluble on expression in E. coli": "soluble"},
      {"sequence": "MGSDKIHHHHHHALSSIEKIQGKDRYETAAKIAQKQTYENVVLVNTDNTLADGLSASGLAGTVKAPILLSQRNSIPSDTEKMLKDVKKVYIIGTEDSIGKSVENELKQKGIEVKRIGGNDRIETSYLIAKEIASIKPIDKVFITNGYTGEADAMSASSVASRDGAPIILTNGKNVPFEKKEGVQCYALGSEEIISNDLVKKTNSVRLAGEDRFETNKKVIKHFYSSAKEFYLSKGYQLVDAVAGSSIAKNAPIVLVDGNSDKSVLRSADKITALGGIDEKTLEQCLSASSLDASAPTITVGNLNIYQGDKFDISKLNIVAKDSNGNDLTPELIGNINTDKVGKYKVTIKATDIGGKTTSISVEVNVLEYKTNDMNSSEFKRMVSSEMYSLVNSYRKEKGKEPLQVSENLQGMANYWSKYMADKGEFAHVINGKNAAEVFSGGIRSEENIAFVPLTTKSTYTTKDAREVANVIFTVWKKSDKYNENMLSSKFAYTGFGLYILPDGQVYATQEFLNK", "soluble on expression in E. coli": "not soluble"},
      {"sequence": "MGSDKIHHHHHHMWELDVSPTRFKAHFSLDPGVACLNHGMLGACPISVQQRQSTLRAQLERQPAAFVLRALPALLDTARNCLAEVIGADPQDLLLLPNVTTAMSAVLRSRIFAPGDQILTTDHAYLSCRNLLEFIARSTGAEVMVAPVKVPVQHPDAIVDAVLERVTARTRLAVLDHVTSPTAIVFPIARLVERLAALGIDTLVDGAHAPGMLPLDVIAIGAAYYAGDCHKWLCTPRGAGFLHVRRDRQDGLHPPVISRGYGDATPGRPRLHLEFDWLGTADPTALLCIPAAIDFLATLLPGGLPAVFARNHALVTQAAARLAQALPLARLAPDAMVGSMVAFQLPDAASDAPDDAAASLQRWLYDAHRIDVAVTPWPHRTNRTLRISAQVYNAAEDFMQLDAPLAQCLAPDDRQSNNQCRTTEVMR", "soluble on expression in E. coli": "not soluble"},
      {"sequence": "MSVIDIHCHTAGVGAGGSGCFISTRLRESWRYRFYLASFGVTDAELEREGDGLVLRRLAERLAVSTRVQAAVVLALDGAIDSRGNLDQTRTELFIPNDFLSGQCRRYPNLLFGASVNPLRPDALDRLDAAAAASAVLVKWLPSIQGTDPADRRLVPFYRRLAELGLPLLTHTGEEQSFTRADNSLSDPNRLRLPLDEGVTVIAAHCATSGRSEGQRNRHRLLALFAAYPNLHADISSLTQVNRLGHLQWVLKHRELHERLLYGTDMPLPATALTSPWFHLFSLGPFAARRLAAIRNPWDRDVALKLALGMPEQILHNAAGLLRLALEHHHHHH", "soluble on expression in E. coli": "not soluble"},
      {"sequence": "GPGSMLLMPFPLVPSPPPTRLSGHLTPVALVGVLVCASPRCAPKPRPRPWNASHTHTHTHTSPRPLIAHTVSLCVSVVRKHLFFFRRFLRLPPSPNRKRNQLTGAAMLTRRAVSSAVGAAMVTSSSVSMQRRYDHDRWYGHALELDTHNYKFNGEPPSWMKTRAKTEEETSFAKSVLPHIDFASSYECLLFDADRLNTNLNRKEFGNEIKYRLEKQANTVARAQQLLRDKKAGTGPDAEKVENTLIARIFDEEHVQAEMKYVKCIRANELAEDNRLDILPGGSPNSLREKTRWNLNTELHPADRAEIGARLTAWLPEKYHIVYFDDFQTVAANDATARKEMLEIVESVQKEYTAEAKEGGYESDLKEAVAELMDDVDPTRTITMEAIKSCKDLQQLEDWSRQVHEYNGDDRIIAIYARAAEITKNVEHQALVRQMREWRKLATKNESKL", "soluble on expression in E. coli": "not soluble"},
      {"sequence": "MGSDKIHHHHHHMIRLFEYDSKQAQSLSQVPVHQPSIIRVIHGEKSLLWQDESVLVGQGQLLLIPAGSHISFVNRPFLGRYRAVQLLLPHDLPQGILSSTADWRDPMPVQNVSRAVDLAWNALLQSLSLSLADSVQLHYLAALLLSLPDKRSVNWLYGHTQRSVTQAALALMSVSPSAPWQQEEIADKLHMSTASLRRKLVLEDTSFRQLLVEVRLSHGLAMLQNSGEPLLQVALACGYQSAEKFSLRFKQQFGLTPAAYRRTL", "soluble on expression in E. coli": "not soluble"},
      {"sequence": "AANDNNVEWNGLFHDQGPLFDNAPEPTSTQSVTLKLRTFKGDITSANIKYWDTADNAFHWVPMVWDSNDPTGTFDYWKGTIPASPSIKYYRFQINDGTSTAWYNGNGPSSTEPNADDFYIIPNFKTPDWLKNGVMYQIFPDRFYNGDSSNDVQTGSYTYNGTPTEKKAWGSSVYADPGYDNSLVFFGGDLAGIDQKLGYIKKTLGANILYLNPIFKAPTNHKYDTQDYMAVDPAFGDNSTLQTLINDIHSTANGPKGYLILDGVFNHTGDSHPWFDKYNNFSSQGAYESQSSPWYNYYTFYTWPDSYASFLGFNSLPKLNYGNSGSAVRGVIYNNSNSVAKTYLNPPYSVDGWRLDAAQYVDANGNNGSDVTNHQIWSEFRNAVKGVNSNAAIIGEYWGNANPWTAQGNQWDAATNFDGFTQPVSEWITGKDYQNNSASISTTQFDSWLRGTRANYPTNVQQSMMNFLSNHDITRFATRSGGDLWKTYLALIFQMTYVGTPTIYYGDEYGMQGGADPDNRRSFDWSQATPSNSAVALTQKLITIRNQYPALRTGSFMTLITDDTNKIYSYGRFDNVNRIAVVLNNDSVSHTVNVPVWQLSMPNGSTVTDKITGHSYTVQNGMVTVAVDGHYGAVLAQ", "soluble on expression in E. coli": "soluble"},
      {"sequence": "MSLATIYDVAKAAGVSPKTVSRVLNDDAPVNESTRQAVNEAIAALDYLPSQAARMMRSSRSRLIGLITGAISQEIGPAVQSGLPEMNIVQAIQREMSAQGKILMISDTGGRADAAPVLARTFAQHRVEGLIYVADHHREIEMDLTSGNCPVVLVNCYDAAATPCVLPDDEAGEAALVARLIEAGHRRIGFLPPDRTQPAARLRLDGYRTALAAAGLAYDPDLVAHVHDPDADRARALLTEALDALLSLDAPPSVICCTNDEMAMRLYGLLRSRGLRVPDDISVAGYDDHKTISEMLYPQLTTVVLPYSEMGRQAARLMLELIEGKPLASPGPTLVDGPVVWRSSVTEGHHHHHH", "soluble on expression in E. coli": "soluble"},
      {"sequence": "LAFVGLTIAIVVTETALLFRRYTALKPADLTRLINSENALVVDLSPSSDFEKGHIAGSRSVVESKFDPESNKLLLSAKQSPLVVVCRNGHISAAAAKRLKNAGFEKVYWLDGGIATWKMAEMPLIK", "soluble on expression in E. coli": "not soluble"},
      {"sequence": "SMGAGGGGSAEQLDALVKKDKVVVFLKGTPEQPQCGFSNAVVQILRLHGVRDYAAYNVLDDPELRQGIKDYSNWPTIPQVYLNGEFVGGCDILLQMHQNGDLVEELKKLGIHSALLDE", "soluble on expression in E. coli": "soluble"}
    ]}
  ]
}
